Measured values reported in paper PMC9477737, “Structural insights into auxin recognition and efflux by Arabidopsis PIN1” (Nature, 2022).

Experiments:
[1] = biological target: the molecule itself; test: cryo-EM structure; purified PIN1 and sybody-21 mixed at a molar ratio of ~1:3, gel filtration in 25 mM HEPES pH 7.4, 150 mM NaCl, 0.02% GDN; apo, IAA-bound (10 mM IAA) and NPA-bound (100 uM NPA) samples
[2] = biological target: T1, Arabidopsis thaliana PIN1 (PIN-FORMED 1 auxin transporter), full length, N-terminal Flag tag (A. thaliana, UniProt Q9C6B8); test: as above; settings: both partners purified
T1 construct: PIN1, Arabidopsis thaliana, UniProt Q9C6B8, full length; most of the hydrophilic loop is not visible in the cryo-EM map; Forms a homodimer in the cryo-EM structures; A monomeric class was also seen in the apo sample; also called AtPIN1; WT PIN1

B1: Arabidopsis thaliana PIN1 (PIN-FORMED 1 auxin transporter), full length, N-terminal Flag tag (natural protein, A. thaliana, UniProt Q9C6B8 1-622, looked up)
chain: MITAADFYHVMTAMVPLYVAMILAYGSVKWWKIFTPDQCSGINRFVALFAVPLLSFHFIAANNPYAMNLRFLAADSLQKVIVLSLLFLWCKLSRNGSLDWTITLFSLSTLPNTLVMGIPLLKGMYGNFSGDLMVQIVVLQCIIWYTLMLFLFEYRGAKLLISEQFPDTAGSIVSIHVDSDIMSLDGRQPLETEAEIKEDGKLHVTVRRSNASRSDIYSRRSQGLSATPRPSNLTNAEIYSLQSSRNPTPRGSSFNHTDFYSMMASGGGRNSNFGPGEAVFGSKGPTPRPSNYEEDGGPAKPTAAGTAAGAGRFHYQSGGSGGGGGAHYPAPNPGMFSPNTGGGGGTAAKGNAPVVGGKRQDGNGRDLHMFVWSSSASPVSDVFGGGGGNHHADYSTATNDHQKDVKISVPQGNSNDNQYVEREEFSFGNKDDDSKVLATDGGNNISNKTTQAKVMPPTSVMTRLILIMVWRKLIRNPNSYSSLFGITWSLISFKWNIEMPALIAKSISILSDAGLGMAMFSLGLFMALNPRIIACGNRRAAFAAAMRFVVGPAVMLVASYAVGLRGVLLHVAIIQAALPQGIVPFVFAKEYNVHPDILSTAVIFGMLIALPITLLYYILLGL
notes: PIN1, Arabidopsis thaliana, UniProt Q9C6B8, full length; most of the hydrophilic loop is not visible in the cryo-EM map; Forms a homodimer in the cryo-EM structures; A monomeric class was also seen in the apo sample; also called AtPIN1; WT PIN1
In the case of B1, the “stoichiometry N” value [1] is reported as 2.

B2: Sybody-21 (synthetic nanobody selected against PIN1) (VHH)
VHH: QVQLVESGGGLVQAGGSLRLSCAASGFPVNISWMEWYRQVPGKEREWVAAIQSTGSYTWYADSVKGRFTISRDNAKNTVYLQMNSLKPEDTAVYYCRVKVGAYYRGQGTQVTVSA
notes: Selected by ribosome display and phage display from the Concave, Loop or Convex sybody libraries; The BLI methods speak of a His-tagged sybody; How the purified Sybody-21 was made is not described; also called the sybody
B2: binds [2].
